Experimental data as given in patent US20260007747A1 (VIVASOR, published 2026).

Biological target: PD-L1 expressed on tumor cells (A549 wild type, MDA-MB-231, SK-MEL-5) (human, UniProt Q9NZQ7 19-290)
Assay: cell-based or functional assay

Chain of PD-L1 expressed on tumor cells (A549 wild type, MDA-MB-231, SK-MEL-5) (Q9NZQ7 19-290): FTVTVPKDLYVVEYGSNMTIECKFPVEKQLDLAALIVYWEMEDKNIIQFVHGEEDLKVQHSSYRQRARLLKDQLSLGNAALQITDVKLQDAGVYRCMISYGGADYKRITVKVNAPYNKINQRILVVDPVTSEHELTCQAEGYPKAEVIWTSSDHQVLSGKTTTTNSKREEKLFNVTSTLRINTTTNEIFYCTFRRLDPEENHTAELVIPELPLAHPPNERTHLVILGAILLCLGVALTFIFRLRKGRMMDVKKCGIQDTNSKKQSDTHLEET

expansion of T cells on irradiated tumor cells, E:T 1:4 [fold] | Binder
> 100 | PD-L1 CAR-ζFL (other) EVQLVESGAEVKKPGSSVKVSCKASGGTFSSYAISWVRQAPGQGLEWMGGIIPIFGTANYAQKFQGRVTITADESTSTAYMELSSLRSEDTAVYYCARAPYYYYYMDVWGQGTTVTVSSGGGGSGGGGSGGGGSQSALTQPASVSGSLGQSVTISCTGSSSDVGSYNLVSWYQQHPGKAPNLMIYDVSKRSGVSNRFSGSKSGNTASLTISGLQAEDEADYYCSSYTGISTVVFGGGTKLTVLAKPTTTPAPRPPTPAPTIASQPLSLRPEACRPAAGGAVHTRGLDFAPRKIEVMYPPPYLDNEKSNGTIIHVKGKHLCPSPLFPGPSKPFWVLVVVGGVLACYSLLVTVAFIIFWVKRGRKKLLYIFKQPFMRPVQTTQEEDGCSCRFPEEEEGGCELRVKFSRSADAPAYQQGQNQLYNELNLGRREEYDVLDKRRGRDPEMGGKPRRKNPQEGLYNELQKDKMAEAYSEIGMKGERRRGKGHDGLYQGLSTATKDTYDALHMQALPPR
> 100 | αPDL1-γ-TCRγδ receptor encoded by construct GD109 (other) chain 1: EVQLVESGAEVKKPGSSVKVSCKASGGTFSSYAISWVRQAPGQGLEWMGGIIPIFGTANYAQKFQGRVTITADESTSTAYMELSSLRSEDTAVYYCARAPYYYYYMDVWGQGTTVTVSSGGGGSGGGGSGGGGSQSALTQPASVSGSLGQSVTISCTGSSSDVGSYNLVSWYQQHPGKAPNLMIYDVSKRSGVSNRFSGSKSGNTASLTISGLQAEDEADYYCSSYTGISTVVFGGGTKLTVLPIKTDVITMDPKDNCSKDANDTLLLQLTNTSAYYMYLLLLLKSVVYFAIITCCLLRRTAFCCNGEKS chain 2: EVKTDSTDHVKPKETENTKQPSKSCHKPKAIVHTEKVNMMSLTVLGLRMLFAKTVAVNFLLTAKLFFL
> 100 | αPDL1-δ-TCRγδ receptor encoded by construct GD102 (other) chain 1: EVQLVESGAEVKKPGSSVKVSCKASGGTFSSYAISWVRQAPGQGLEWMGGIIPIFGTANYAQKFQGRVTITADESTSTAYMELSSLRSEDTAVYYCARAPYYYYYMDVWGQGTTVTVSSGGGGSGGGGSGGGGSQSALTQPASVSGSLGQSVTISCTGSSSDVGSYNLVSWYQQHPGKAPNLMIYDVSKRSGVSNRFSGSKSGNTASLTISGLQAEDEADYYCSSYTGISTVVFGGGTKLTVLEVKTDSTDHVKPKETENTKQPSKSCHKPKAIVHTEKVNMMSLTVLGLRMLFAKTVAVNFLLTAKLFFL chain 2: PIKTDVITMDPKDNCSKDANDTLLLQLTNTSAYYMYLLLLLKSVVYFAIITCCLLRRTAFCCNGEKS
